According to IntAct's records for PubMed 16902413:

molecular target: nebu_human NEB (UniProt P20929)

Effect of a mutation on the interaction, decreasing interaction:
Titin (Homo sapiens), Q8WZ42 P254G
Titin (Homo sapiens), Q8WZ42 P258G
Titin (Homo sapiens), Q8WZ42 P266G
Titin (Homo sapiens), Q8WZ42 P268G
Titin (Homo sapiens), Q8WZ42 P269G
